# Reference: publication PMC5035961
# Values joined by “and” are separate entries in the source; they are usually repeats but may differ in a detail not shown here. Identical values can stand only once.
# Tests used:
# [1] = molecular target: Influenza B nucleoprotein (strain B/Memphis/13/03) (influenza B virus, strain B/Memphis/13/03); assay: SEC-MALLS
# [2] = molecular target: Influenza B nucleoprotein (strain B/Memphis/13/03) (influenza B virus, strain B/Memphis/13/03); assay: negative stain electron microscopy
substance,measurement,setting,value
Influenza B nucleoprotein (strain B/Memphis/13/03) (natural protein),stoichiometry N,[1],5 and 2 and 4
same,stoichiometry N,[2],2 and 4 and 5
